Reference: US20140348865A1, “[…] ON AN HIV-1 V1V2 SITE-OF-VULNERABILITY” (The United States of America, as represented by the …, priority 2011, published 2014)

Assays:
epitope-scaffold 2ZJR_A [1] = experiment: ELISA, antibody dilution series on the scaffold
1X3E = experiment: ELISA, antibody dilution series on the scaffold
1JO8-ZM109 V1V2 scaffold [2] = experiment: ELISA, antibody dilution series on the scaffold
[3] = biological target: linked dimers of the gp120 V1/V2 domain; experiment: gel filtration shift
epitope-scaffold 1VH8_C [4] = experiment: ELISA, antibody dilution series on the scaffold after large-scale expression
[5] = biological target: Env of HIV-1 strain T251-18 (pseudovirus) (HIV-1); experiment: cell-based or functional assay
[6] = biological target: Env of HIV-1 strain 6631 (pseudovirus) (HIV-1); experiment: cell-based or functional assay
[7] = biological target: Env of HIV-1 strain JRFL (pseudovirus) (HIV-1); experiment: cell-based or functional assay
[8] = biological target: Env of HIV-1 strain 6471 (pseudovirus) (HIV-1); experiment: cell-based or functional assay
[9] = biological target: Env of HIV-1 strain CNE4 (pseudovirus) (HIV-1); experiment: cell-based or functional assay
[10] = biological target: Env of HIV-1 strain CNE30 (pseudovirus) (HIV-1); experiment: cell-based or functional assay
[11] = biological target: Env of HIV-1 strain 3873 (pseudovirus) (HIV-1); experiment: cell-based or functional assay
[12] = biological target: Env of HIV-1 strain 6405 (pseudovirus) (HIV-1); experiment: cell-based or functional assay
[13] = biological target: Env of HIV-1 strain ZM135 (pseudovirus) (HIV-1); experiment: cell-based or functional assay
[14] = biological target: Env of HIV-1 strain QH0515 (pseudovirus) (HIV-1); experiment: cell-based or functional assay
[15] = biological target: Env of HIV-1 strain RHPA (pseudovirus) (HIV-1); experiment: cell-based or functional assay
[16] = biological target: Env of HIV-1 strain 398 (pseudovirus) (HIV-1); experiment: cell-based or functional assay
[17] = biological target: Env of HIV-1 strain 6322 (pseudovirus) (HIV-1); experiment: cell-based or functional assay
[18] = biological target: Env of HIV-1 strain 7165.18 (pseudovirus) (HIV-1); experiment: cell-based or functional assay
[19] = biological target: Env of HIV-1 strain 0439 (pseudovirus) (HIV-1); experiment: cell-based or functional assay
[20] = biological target: Env of HIV-1 strain QH209 (pseudovirus) (HIV-1); experiment: cell-based or functional assay
[21] = biological target: Env of HIV-1 strain BG 1168 (pseudovirus) (HIV-1); experiment: cell-based or functional assay
[22] = biological target: Env of HIV-1 strain CNE56 (pseudovirus) (HIV-1); experiment: cell-based or functional assay
[23] = biological target: Env of HIV-1 strain A03349M1 (pseudovirus) (HIV-1); experiment: cell-based or functional assay
[24] = biological target: Env of HIV-1 strain X2088 (pseudovirus) (HIV-1); experiment: cell-based or functional assay
[25] = biological target: gp120 of HIV-1 strain 16055, full length (HIV-1); experiment: ELISA, PG9 dilution series
epitope-scaffold 2ZJR_A [26] = experiment: ELISA, PG9 dilution series
epitope-scaffold 2ZJR_B = experiment: ELISA, PG9 dilution series
epitope-scaffold 1VH8_C [27] = experiment: ELISA, PG9 dilution series
1JO8-ZM109 V1V2 scaffold [28] = experiment: ELISA, PG9 dilution series

Substance monoclonal antibody PG9 has an EC50 (read off the curve) (epitope-scaffold 2ZJR_A [1]) of 0.3 µg/mL, an EC50 (read off the curve) (1X3E) of 1 µg/mL and an EC50 (read off the curve) (1JO8-ZM109 V1V2 scaffold [2]) of 0.5 µg/mL. For the same substance, the percent active for PG9 binding [3] was 100%, the EC50 (read off the curve) (epitope-scaffold 1VH8_C [4]) was 0.8 µg/mL and the neutralization IC50, Env-pseudovirus, TZM-bl cells [5] was greater than 50 µg/mL. The neutralization IC50, Env-pseudovirus, TZM-bl cells [6] was greater than 50 µg/mL, the neutralization IC50, Env-pseudovirus, TZM-bl cells [7] was greater than 50 µg/mL and the neutralization IC50, Env-pseudovirus, TZM-bl cells [8] was greater than 50 µg/mL. It also gave a neutralization IC50, Env-pseudovirus, TZM-bl cells [9] greater than 50 µg/mL, a neutralization IC50, Env-pseudovirus, TZM-bl cells [10] greater than 50 µg/mL and a neutralization IC50, Env-pseudovirus, TZM-bl cells [11] greater than 50 µg/mL. For the same substance, the neutralization IC50, Env-pseudovirus, TZM-bl cells [12] was greater than 50 µg/mL, the neutralization IC50, Env-pseudovirus, TZM-bl cells [13] was greater than 50 µg/mL and the neutralization IC50, Env-pseudovirus, TZM-bl cells [14] was greater than 50 µg/mL. The neutralization IC50, Env-pseudovirus, TZM-bl cells [15] was greater than 50 µg/mL, the neutralization IC50, Env-pseudovirus, TZM-bl cells [16] was greater than 50 µg/mL and the neutralization IC50, Env-pseudovirus, TZM-bl cells [17] was greater than 50 µg/mL. For the same substance, the neutralization IC50, Env-pseudovirus, TZM-bl cells [18] was greater than 50 µg/mL, the neutralization IC50, Env-pseudovirus, TZM-bl cells [19] was greater than 50 µg/mL and the neutralization IC50, Env-pseudovirus, TZM-bl cells [20] was greater than 50 µg/mL. It also gave a neutralization IC50, Env-pseudovirus, TZM-bl cells [21] greater than 50 µg/mL, a neutralization IC50, Env-pseudovirus, TZM-bl cells [22] greater than 50 µg/mL and a neutralization IC50, Env-pseudovirus, TZM-bl cells [23] greater than 50 µg/mL. For the same substance, the neutralization IC50, Env-pseudovirus, TZM-bl cells [24] was greater than 50 µg/mL, the EC50 (read off the curve) [25] was 0.004 µg/mL and the EC50 (read off the curve) (epitope-scaffold 2ZJR_A [26]) was 0.01 µg/mL. It also gave an EC50 (read off the curve) (epitope-scaffold 2ZJR_B) of 0.01 µg/mL, an EC50 (read off the curve) (epitope-scaffold 1VH8_C [27]) of 0.03 µg/mL and an EC50 (read off the curve) (1JO8-ZM109 V1V2 scaffold [28]) of 0.03 µg/mL.
